Source: patent US8088892B2, “Inhibitors of proteins from the Rho-GEF family” (Centre National de la Recherche Scientifique (C.N.R.S.), priority 2002, dated 2012)

B1: TRIAPα: aptamer of 154 amino acids: variable region of 42 amino acids inserted into the thioredoxin protein; tested as GST fusion (protein)
chain: MSDKIIHLTDDSFDTDVLKADGAILVDFWAEWCGPAREGADGAICGYNLATLVMLGPSERVFCPLCEPCSSDIYELMGPCKMIAPILDEIADEYQGKLTVAKLNIDQNPGTAPKYGIRGIPTLLLFKNGEVASATKVGALSKGQLKEFLDANLA

Assays:
[1] = target: TrioGEFD2 (Homo sapiens, UniProt O75962); experiment: Yeast Exchange Assay (YEA), RhoA activation; assay type: cell-based; settings: yeast strain TAT7, reporter gene
Source text: (§1) The wild type GTPase is fused to the LexA DNA binding domain (Matchmaker GAL4 two-hybrid, Clontech Laboratories, Inc., USA) and the effector to the […] (Matchmaker GAL4 two-hybrid, Clontech, Inc., USA). Under these conditions, no binding occurs in the TAT7 strain (De Toledo et al., 2000). Upon addition of a third plasmid expressing the GEF, the GTPase gets activated and binds to its effector, thus leading to the transactivation of the reporter gene LacZ.
TrioGEFD2, a control GEF (GEF720) or an empty vector (−GEF: corresponds to a vector without GEF) were introduced into the YEA system and analysed for their ability to transactivate the reporter gene in absence (left panel) or in the presence (right panel) of TRIPα.
(§2) In order to better characterise the effect of TRIAPα on the Trio full length RhoGEF activity, the yeast exchange assay (YEA) was used, which is a quick and quantitative test derived from the classical two-hybrid system allowing to measure Rho-GEF activity and specificity (De Toledo et al., 2000). This functional assay is based on the fact that the GTPase binds to its effector only if it is activated by a RhoGEF. Briefly, yeasts are transformed with the GTPase fused to the LexA binding domain (LexA), and its effector to the GAL-4 Activating Domain (GAD), and with the adequate Rho-GEF partner in the yeast strain TAT7 (FIG. 7). […]

[2] = target: T1, Full length Trio (RhoG) (Homo sapiens, UniProt O75962); experiment: Yeast Exchange Assay (YEA), full length Trio on RhoG; assay type: cell-based; set-up: key to activation of the reporter gene by full length Trio, RhoG: “+ +” represents a slight activation of the reporter gene; “+ + + +” represents a strong activation of the reporter gene; “−” represents no activation of the reporter gene
T1 construct: Full length Trio was introduced into the YEA; expressed in transfected cells; host or cells: yeast strain TAT7
Source text: as §1
Full length Trio was introduced into the YEA and tested for its ability to activate RhoA and RhoG respectively, in the presence or absence of TRIPα. The table below summarizes the effect of TRIPα on Trio as schematized in this Figure.
as §2

[3] = target: T2, Kalirin GEFD2 (KalGEFD2) (Rattus norvegicus, UniProt P97924); experiment: In vitro GEF assay on RhoA; assay type: biochemical; set-up: key to in vitro GEF assay (inhibition): +++^2 and +^2 represent respectively a full and a partial (see FIG. 3) inhibitory effect; +++^2 and +^2 represent respectively a full and a partial (see FIG. 3) inhibitory effect; −−^2 represents a lack of inhibitory effect; settings: for Effect on Kalirin GEFD2 exchange activity on RhoA: 20-fold molar excess, KalGEFD2 1.7 μM
T2 construct: KalGEFD2, a.a; 1850-2190, 65% identity with TrioGEFD2; made in house
Protocol: To test the specificity of TRIAPα inhibition in vitro, exchange experiments were performed either on RhoA with different RhoA-specific GEFs: Trio GEFD2 (0.4 μM), Kalirin GEFD2 (KalGEFD2, 1.7 μM), p63RhoGEF (Souchet et al., 2002) (0.4 μM) and Lbc (amino acids 172-598; Zheng et al., 1995) (0.4 μM), or on RhoG, with the RhoG-specific GEF domain of Trio (TrioGEFD1, 0.1 μM). Exchange assays were performed with the recombinant GEFs as described in FIG. 2A. Different concentrations of RhoGEFs were used to yield a similar nucleotide exchange efficiency. For each exchange factor, three independent experiments were done in absence (black bar) or in the presence (grey bar) of a 20-fold molar excess of TRIAPα.
An in vitro guanine nucleotide exchange (GEF) assay was used to test whether the TrioGEFD2-binding aptamers could inhibit the catalytic activity of TrioGEFD2 towards RhoA. For this purpose, the aptamers TRIAPα, TRIAPβ and TRIAPγ (including the Trx gene) were excised from pEG202 as EcoRI/NotI fragments and cloned into pGEX4T1 EcoRI/NotI. The aptamers were then expressed and purified from bacteria as GST fusion proteins, using standard procedures (Smith and Johnson, 1988). GTPase-GST fusion proteins were prepared, loaded with [^3H]GDP and the guanine nucleotide release assays were performed as described (Debant et al., 1996), using recombinant GST-TrioGEFD2 (a.a. 1848-2298), TrioDH2 (a.a. 1848-2096). For each point, 0.3 μM GTPase was mixed with or without 0.4 μM GEF in presence of non-labeled GTP, and the reaction mix was filtered after 0 min and 15 mm reaction at 25° C. The catalytic activity of TrioGEFD2 was thus measured by the decrease of the GTPase-associated radioactivity. The results are expressed as the ratio “exchange after 15 min over exchange after 0 min” (% bound [^3H]GDP-RhoA). To measure the effect of the aptamers on the exchange activity, a 20-fold molar excess of GST-TRIAPs was pre-incubated with GEFD2 (or GEFD1) for 30 min on ice before the exchange assay was carried out. For each experiment, data were obtained in triplicate.
The effect of GST-TRIAPα on other Rho-GEFs that display in vitro exchange activity on RhoA was next tested to investigate whether TRIAPα inhibition was specific of TrioGEFD2. The exchange activities of the RhoGEF Lbc (a.a. 1-424, FIG. 3)(Zheng et al., 1995) and Dbl (a.a. 495-826, data not shown) were not affected by GST-TRIAPα. The effect of GST-TRIAPα on the catalytic activity of RhoGEFs that display a high sequence similarity with TrioGEFD2 was then tested: the recently identified RhoA-specific p63RhoGEF (Souchet et al., 2002) (a.a. 149-374, 71.5% identity with TrioGEFD2, 0.4 μM) and the second Rho-GEF domain of the Trio family member Kalirin (KalGEFD2, a.a. 1850-2190, 65% identity with TrioGEFD2, 1.7 μM). Different concentrations of RhoGEFs were used to yield similar nucleotide exchange […]. For each exchange factor, three independent experiments were done in absence or in the presence of a 20-fold molar excess of GST-TRIAPα. […] Thus, the in vitro inhibitory activity of TRIAPα was selective for TrioGEFD2 (see table I for summary of the tested RhoGEFs).

| Molecule | Inhibition of TrioGEFD2-mediated RhoA activation in the YEA system [1] | activation of the reporter gene by full length Trio, RhoG ([2]; +TRIPα (−TRIPα: + +)) | Effect on Kalirin GEFD2 exchange activity on RhoA [3] | Effect on full-length Trio (TrioGEFD1) activation of RhoG in the YEA system [2] | Effect on Kalirin GEFD2 exchange activity on RhoA ([3]; listed as GST-TRIAPα) | in vitro GEF assay (inhibition) ([3]; RhoGEF KalirinDH2PH2) |
| --- | --- | --- | --- | --- | --- | --- |
| AREGADGAICGYNLATLVMLGPSERVFCPLCEPCSSDIYELM [TRIPα, 42-amino acid peptide corresponding to the variable region of TRIAPα] | inhibits TrioGEFD2-mediated RhoA activation | + + + + | slightly inhibited | – | – | – |
| B1 | blocked specifically TrioGEFD2-mediated activation of RhoA | – | weakly inhibits | greatly enhanced TrioGEFD1 activation of RhoG | only weakly inhibited | +^2 |
